{"source": "the Human Domainome abundance scans (Beltran et al. 2025)", "parents": {"B1": {"name": "Ras GTPase-activating protein 1, residues 281 to 341; numbered along this chain, P20936 (parent)", "chain": "RRRVRAILPYTKVPDTDEISFLKGDMFIVHNELEDGWMWVTNLRTDEQGLIVEDLVEEVGR"}}, "note": "± gives the uncertainty stated by the source.", "data": [{"variants_of": "B1", "experiment": "abundance fitness (aPCA) (normalised: wild type 0, dead -1); higher = more abundant; growth selection in yeast, the domain comes from the species named", "conditions": "Homo sapiens", "values": [{"variant": "G49C", "abundance fitness": "-0.784 ± 0.039"}, {"variant": "D15Y", "abundance fitness": "-0.168 ± 0.028"}, {"variant": "P14A", "abundance fitness": "-0.027 ± 0.03"}, {"variant": "D46S", "abundance fitness": "-0.011 ± 0.023"}, {"variant": "V4A", "abundance fitness": "-0.462 ± 0.026"}, {"variant": "I51K", "abundance fitness": "-1.09 ± 0.12"}, {"variant": "I7H", "abundance fitness": "-0.305 ± 0.036"}, {"variant": "L22P", "abundance fitness": "-1.15 ± 0.19"}, {"variant": "T16I", "abundance fitness": "-0.879 ± 0.059"}, {"variant": "D17M", "abundance fitness": "-0.059 ± 0.044"}, {"variant": "S20K", "abundance fitness": "-0.853 ± 0.12"}, {"variant": "L22F", "abundance fitness": "-0.145 ± 0.029"}, {"variant": "R3Q", "abundance fitness": "-0.066 ± 0.06"}, {"variant": "G36I", "abundance fitness": "-0.88 ± 0.051"}, {"variant": "V4H", "abundance fitness": "-0.739 ± 0.03"}, {"variant": "R5E", "abundance fitness": "-0.138 ± 0.056"}, {"variant": "P14D", "abundance fitness": "-0.023 ± 0.028"}, {"variant": "E47N", "abundance fitness": "-0.428 ± 0.032"}, {"variant": "D15H", "abundance fitness": "-0.04 ± 0.034"}, {"variant": "V29D", "abundance fitness": "-0.764 ± 0.043"}, {"variant": "V59C", "abundance fitness": "-0.041 ± 0.028"}, {"variant": "P9N", "abundance fitness": "-0.101 ± 0.031"}, {"variant": "V29T", "abundance fitness": "-0.879 ± 0.059"}, {"variant": "R61N", "abundance fitness": "0.02 ± 0.033"}, {"variant": "V56F", "abundance fitness": "-0.953 ± 0.047"}, {"variant": "L8G", "abundance fitness": "-0.012 ± 0.026"}, {"variant": "K12E", "abundance fitness": "-0.218 ± 0.11"}, {"variant": "L43R", "abundance fitness": "-0.437 ± 0.034"}, {"variant": "K12F", "abundance fitness": "-0.985 ± 0.052"}, {"variant": "G24E", "abundance fitness": "-0.371 ± 0.052"}, {"variant": "D17Y", "abundance fitness": "-0.084 ± 0.026"}, {"variant": "E58V", "abundance fitness": "-0.201 ± 0.035"}, {"variant": "A6M", "abundance fitness": "-0.804 ± 0.05"}, {"variant": "G24A", "abundance fitness": "-0.495 ± 0.034"}, {"variant": "Q48P", "abundance fitness": "-0.503 ± 0.04"}, {"variant": "L8V", "abundance fitness": "-0.039 ± 0.027"}, {"variant": "D17W", "abundance fitness": "-0.136 ± 0.051"}, {"variant": "L55D", "abundance fitness": "-0.394 ± 0.035"}, {"variant": "M26A", "abundance fitness": "-0.177 ± 0.033"}, {"variant": "K23H", "abundance fitness": "-0.313 ± 0.031"}, {"variant": "V56P", "abundance fitness": "-0.778 ± 0.054"}, {"variant": "T45M", "abundance fitness": "-0.974 ± 0.11"}, {"variant": "L8R", "abundance fitness": "-0.059 ± 0.031"}, {"variant": "W37G", "abundance fitness": "-0.049 ± 0.02"}, {"variant": "P9K", "abundance fitness": "-0.232 ± 0.07"}, {"variant": "F27D", "abundance fitness": "-0.748 ± 0.051"}, {"variant": "I7E", "abundance fitness": "-0.551 ± 0.1"}, {"variant": "L22Y", "abundance fitness": "-0.102 ± 0.035"}, {"variant": "F27C", "abundance fitness": "-0.485 ± 0.029"}, {"variant": "A6D", "abundance fitness": "-0.953 ± 0.035"}, {"variant": "V56H", "abundance fitness": "-0.93 ± 0.069"}, {"variant": "V13H", "abundance fitness": "0.012 ± 0.03"}, {"variant": "T16A", "abundance fitness": "-0.746 ± 0.053"}, {"variant": "M26D", "abundance fitness": "0.012 ± 0.03"}, {"variant": "V52W", "abundance fitness": "-0.047 ± 0.046"}, {"variant": "I19A", "abundance fitness": "-1.14 ± 0.12"}, {"variant": "R61D", "abundance fitness": "0.039 ± 0.04"}, {"variant": "I28E", "abundance fitness": "0.098 ± 0.034"}, {"variant": "S20W", "abundance fitness": "-0.511 ± 0.1"}, {"variant": "L8P", "abundance fitness": "-0.99 ± 0.094"}, {"variant": "L50S", "abundance fitness": "-0.07 ± 0.024"}, {"variant": "R3F", "abundance fitness": "0.004 ± 0.032"}, {"variant": "D35P", "abundance fitness": "-0.126 ± 0.044"}, {"variant": "V52E", "abundance fitness": "-0.123 ± 0.052"}, {"variant": "R1Y", "abundance fitness": "0.018 ± 0.042"}, {"variant": "T11I", "abundance fitness": "-0.055 ± 0.028"}, {"variant": "E53C", "abundance fitness": "-0.079 ± 0.026"}, {"variant": "E32S", "abundance fitness": "-0.019 ± 0.026"}, {"variant": "M26T", "abundance fitness": "-0.03 ± 0.038"}, {"variant": "D46Q", "abundance fitness": "-0.11 ± 0.056"}, {"variant": "E58F", "abundance fitness": "-0.285 ± 0.03"}, {"variant": "G49N", "abundance fitness": "-0.836 ± 0.043"}, {"variant": "R61V", "abundance fitness": "0.079 ± 0.039"}, {"variant": "D54S", "abundance fitness": "0.058 ± 0.029"}, {"variant": "F27K", "abundance fitness": "-0.965 ± 0.13"}, {"variant": "G24Q", "abundance fitness": "-0.628 ± 0.11"}, {"variant": "D15M", "abundance fitness": "-0.269 ± 0.077"}, {"variant": "D46K", "abundance fitness": "0.085 ± 0.042"}, {"variant": "V52N", "abundance fitness": "0.015 ± 0.028"}, {"variant": "L43N", "abundance fitness": "-0.388 ± 0.036"}, {"variant": "V13R", "abundance fitness": "0.071 ± 0.03"}, {"variant": "E34S", "abundance fitness": "-0.01 ± 0.028"}, {"variant": "M26E", "abundance fitness": "0.117 ± 0.057"}, {"variant": "L55R", "abundance fitness": "-0.034 ± 0.029"}, {"variant": "E57N", "abundance fitness": "-0.447 ± 0.047"}, {"variant": "L55Y", "abundance fitness": "0.034 ± 0.03"}, {"variant": "F27M", "abundance fitness": "-0.108 ± 0.07"}, {"variant": "V56I", "abundance fitness": "-0.031 ± 0.028"}, {"variant": "N31W", "abundance fitness": "-0.043 ± 0.045"}, {"variant": "E34R", "abundance fitness": "0.065 ± 0.034"}, {"variant": "T41L", "abundance fitness": "-0.357 ± 0.033"}, {"variant": "R61Q", "abundance fitness": "0.044 ± 0.083"}, {"variant": "D15Q", "abundance fitness": "-0.207 ± 0.072"}, {"variant": "V59D", "abundance fitness": "-0.067 ± 0.033"}, {"variant": "R61I", "abundance fitness": "-0.003 ± 0.029"}, {"variant": "V29I", "abundance fitness": "-0.057 ± 0.029"}, {"variant": "R44D", "abundance fitness": "-0.885 ± 0.087"}, {"variant": "G60P", "abundance fitness": "-0.023 ± 0.16"}, {"variant": "W39K", "abundance fitness": "-0.118 ± 0.037"}, {"variant": "W39Q", "abundance fitness": "-0.079 ± 0.046"}, {"variant": "V4R", "abundance fitness": "-0.631 ± 0.025"}, {"variant": "V4F", "abundance fitness": "-0.082 ± 0.021"}, {"variant": "E53W", "abundance fitness": "-0.203 ± 0.055"}, {"variant": "M26P", "abundance fitness": "-0.325 ± 0.047"}, {"variant": "I7M", "abundance fitness": "-0.167 ± 0.065"}, {"variant": "V13A", "abundance fitness": "0.018 ± 0.036"}, {"variant": "I28Y", "abundance fitness": "-0.079 ± 0.022"}, {"variant": "L55E", "abundance fitness": "-0.765 ± 0.12"}, {"variant": "R3T", "abundance fitness": "-0.136 ± 0.037"}, {"variant": "I51Y", "abundance fitness": "-0.834 ± 0.048"}, {"variant": "G60S", "abundance fitness": "-0.068 ± 0.05"}, {"variant": "F27I", "abundance fitness": "-0.864 ± 0.044"}, {"variant": "E57S", "abundance fitness": "-0.252 ± 0.031"}, {"variant": "V59Q", "abundance fitness": "-0.055 ± 0.05"}, {"variant": "G60E", "abundance fitness": "0.003 ± 0.25"}, {"variant": "H30K", "abundance fitness": "-0.151 ± 0.065"}, {"variant": "K23M", "abundance fitness": "-0.149 ± 0.033"}, {"variant": "L33C", "abundance fitness": "-0.07 ± 0.026"}, {"variant": "L22K", "abundance fitness": "-0.07 ± 0.073"}, {"variant": "G36P", "abundance fitness": "-0.597 ± 0.055"}, {"variant": "P9Y", "abundance fitness": "-0.796 ± 0.046"}, {"variant": "I19Q", "abundance fitness": "-1.16 ± 0.23"}, {"variant": "R1T", "abundance fitness": "0.029 ± 0.04"}, {"variant": "G49S", "abundance fitness": "-0.979 ± 0.051"}, {"variant": "V40L", "abundance fitness": "-0.935 ± 0.062"}, {"variant": "Y10F", "abundance fitness": "-0.577 ± 0.042"}, {"variant": "T45C", "abundance fitness": "-0.771 ± 0.038"}, {"variant": "R61P", "abundance fitness": "0.104 ± 0.046"}, {"variant": "V40T", "abundance fitness": "-0.672 ± 0.054"}, {"variant": "D15I", "abundance fitness": "-0.518 ± 0.045"}, {"variant": "D15G", "abundance fitness": "-0.011 ± 0.025"}, {"variant": "G60L", "abundance fitness": "-0.227 ± 0.12"}, {"variant": "L33T", "abundance fitness": "-0.03 ± 0.03"}, {"variant": "V52S", "abundance fitness": "0.013 ± 0.025"}, {"variant": "R5N", "abundance fitness": "-0.754 ± 0.044"}, {"variant": "M38S", "abundance fitness": "-0.451 ± 0.029"}, {"variant": "W39D", "abundance fitness": "-0.226 ± 0.023"}, {"variant": "T45D", "abundance fitness": "-0.762 ± 0.041"}, {"variant": "R5F", "abundance fitness": "-0.398 ± 0.031"}, {"variant": "Q48H", "abundance fitness": "-0.048 ± 0.03"}, {"variant": "D54K", "abundance fitness": "0.037 ± 0.073"}, {"variant": "E32V", "abundance fitness": "-0.018 ± 0.026"}, {"variant": "M26R", "abundance fitness": "-0.186 ± 0.032"}, {"variant": "R1L", "abundance fitness": "-0.067 ± 0.056"}, {"variant": "E32M", "abundance fitness": "0.017 ± 0.053"}, {"variant": "G36V", "abundance fitness": "-0.876 ± 0.044"}, {"variant": "L8W", "abundance fitness": "-0.194 ± 0.043"}, {"variant": "E53Q", "abundance fitness": "-0.034 ± 0.074"}, {"variant": "T11Y", "abundance fitness": "-0.278 ± 0.029"}, {"variant": "L22N", "abundance fitness": "-0.013 ± 0.034"}, {"variant": "I51D", "abundance fitness": "-0.814 ± 0.049"}, {"variant": "Y10C", "abundance fitness": "-0.539 ± 0.05"}, {"variant": "L50M", "abundance fitness": "0.004 ± 0.059"}, {"variant": "N31T", "abundance fitness": "-0.046 ± 0.03"}, {"variant": "Q48F", "abundance fitness": "-0.122 ± 0.026"}, {"variant": "R2Y", "abundance fitness": "-0.103 ± 0.034"}, {"variant": "E18M", "abundance fitness": "-0.42 ± 0.082"}, {"variant": "D46N", "abundance fitness": "0.004 ± 0.025"}, {"variant": "E58K", "abundance fitness": "-0.156 ± 0.063"}, {"variant": "V59K", "abundance fitness": "-0.451 ± 0.079"}, {"variant": "G24N", "abundance fitness": "-0.133 ± 0.033"}, {"variant": "F27S", "abundance fitness": "-0.798 ± 0.036"}, {"variant": "Y10V", "abundance fitness": "-0.728 ± 0.06"}, {"variant": "N31G", "abundance fitness": "-0.072 ± 0.028"}, {"variant": "D54W", "abundance fitness": "-0.184 ± 0.059"}, {"variant": "L22T", "abundance fitness": "-0.153 ± 0.039"}, {"variant": "E32D", "abundance fitness": "-0.026 ± 0.028"}]}]}
